“Also recorded” adds a separate entry of the source.
Columns and labels:
Format in all cases: cell-based
[1] = tested on: Primary human hepatic stellate cells (HSCs); assay: Deposited collagen type I in stimulated HSCs, immunofluorescence (Example 8)
Description: Primary human hepatic stellate cells (HSCs) were grown for 2 days. Cells were maintained in serum-free media for 48 h and subsequently stimulated with either human chymase (C) at 100 ng/mL, human tryptase (T) alone at 1000 ng/mL) or in combination (C 100 ng T 1000 ng) as indicated for a further 48 h. TGFβ1 served as a positive control, and serum-free conditions (SFM) as a negative control.
Following stimulation, media was removed and the cells washed in PBS and fixed with Formalin 4% for 15 min. Cells and extracellular proteins were stained with Rb ANTI-Col I (Novus Biologicals, NB600-408, 1:500) and images were acquired at 20× using a confocal microscope.

Primary human HSCs [2] = assay: Secretion of pro-fibrogenic factors by stimulated HSCs, Luminex (Example 9); conditions: 48 h
Description: Primary human HSCs were grown to confluence and maintained in growth media for 10 days. Cells were maintained in serum-free media for 48 h and subsequently stimulated with either human Chymase (30, 100 or 300 ng/mL), human tryptase alone (300, 1000, 3000 ng/mL) or in combination with chymase for a further 48 h. The TGFβ1 (3 ng/mL) served as a positive control and serum-free conditions as a negative control. Media was removed after 48 h and levels of secreted IGFBP-3, Tenascin C, Collagen IV and Endostatin levels were determined by Luminex.

Primary human HSCs [3] = assay: Active/latent TGFβ in HSC conditioned media, TGFb-responsive luciferase reporter cells (Example 10); conditions: conditioned media heated at 80° C. for 10 minutes; chymase 100 (C2) and 30 ng/mL (C3)
Description: Primary human HSCs were grown to confluence and maintained in growth media for 10 days. Cells were maintained in serum-free media for 48 h and subsequently stimulated with either human Chymase (30, 100 or 300 ng/mL), human tryptase (300, 1000, 3000 ng/mL) or both in combination as indicated for a further 48 h. The TGFb1 (3 ng/mL) served at positive control and serum-free conditions as a negative control.
Conditioned media was collected and either transferred directly to cells harbouring a TGFb-responsive promoter linked to the firefly luciferase reporter gene for 24 h to determine the levels of active TGFb present in media, or conditioned media was heated at 80° C. for 10 minutes in order to activate in the conditioned media the latent TGFb into active TGFb present. The addition of exogenous TGFb1 (1 ng/mL served as a positive control. Cells were lysed after 24 h and levels of latent or active TGFb determined by measuring luciferase activity. The results are shown in FIG. 11.

[4] = tested on: Primary human hepatic stellate cells (HSCs); assay: Collagen type I production by stimulated HSCs, western blot (Example 7); conditions: 48 h stimulation, chymase 30, 100 or 300 ng/mL, tryptase 300, 1000, 3000 ng/mL, alone or in combination
Description: Primary human hepatic stellate cells (HSCs) were grown to confluence and maintained in growth media for 10 days. Cells were maintained in serum-free media for 48 h and subsequently stimulated with either human chymase alone (30, 100 or 300 ng/mL), human tryptase alone (300, 1000, 3000 ng/mL) or human chymase and tryptase in combination as indicated for a further 48 h. The PAR2 agonist at 10 or 100 ng/mL and TGFb1 (3 ng/mL) served as a positive control, whilst serum-free conditions provided a negative control.
Media was removed and the cells and extracellular proteins deposited lysed in RIPA buffer.

[5] = chymase 100 ng/mL, tryptase 1000 ng/mL, 48 h

B1: chymase: human chymase, mast cell serine protease, added exogenously to stimulate hepatic stellate cells (protein, UniProt P23946 22-247, looked up)
Chymase: IIGGTECKPHSRPYMAYLEIVTSNGPSKFCGGFLIRRNFVLTAAHCAGRSITVTLGAHNITEEEDTWQKLEVIKQFRHPKYNTSTLHHDIMLLKLKEKASLTLAVGTLPFPSQFNFVPPGRMCRVAGWGRTGVLKPGSDTLQEVKLRLMDPQACSHFRDFDHNLQLCVGNPRKTKSAFKGDSGGPLLCAGVAQGIVSYGRSDAKPPAVFTRISHYRPWINQILQAN
**Q.** What does the source list for B1?
**A.** cell number (nuclear stain Hoechst) ([1]; C100 ng/mL, T1000 ng/mL, C100/T1000 ng/mL, relative to serum-free medium and TGF-beta controls): no effect; deposited collagen type I (collagen area / immunofluorescence intensity normalised to cell number) relative to SFM [1, 5]: did not induce a significant change; distribution of deposited collagen type I compared to serum-free alone (SFM) [1, 5]: change in distribution; also recorded: altered collagen distribution patterns; secreted IGFBP3 (Primary human HSCs [2]; regardless of concentration): marked increase; secreted Tenascin C (Primary human HSCs [2]; chymase 30, 100 or 300 ng/mL): concentration-dependent increase; secreted collagen IV (Primary human HSCs [2]; chymase 30, 100 or 300 ng/mL): concentration-dependent increase; secreted endostatin (Primary human HSCs [2]; chymase at all concentrations): significant increase; secreted latent TGFβ in conditioned media (Primary human HSCs [3]): increases; collagen type I protein compared to basal levels in untreated cells [4]: marked increase
